Reference: patent US20260055369A1, “METHOD FOR GENERATING CELLS OF THE T CELL LINEAGE WITH ENGINEERING BROADLY REACTIVE HUMAN NOTCH LIGAND” (H. Lee Moffitt Cancer Center and Research Institute, Inc., priority 2022, published 2026)

B1: DLL4.v2: human DLL4 clone with five mutations N257P, T271L, F280Y, S301R, Q305P; matches SEQ ID NO: 5 (protein)
chain: SGVFQLQLQEFINERGVLASGRPCEPGCRTFFRVCLKHFQAVVSPGPCTFGTVSTPVLGTNSAVRDDSSGGGRNPLQLPFNFTWPGTFSLIIEAWHAPGDDLRPEALPPDALISKIAIQGSLAVGQNWLLDEQTSTLTRLRYSYRVICSDNYYGDNCSRLCKKRNDHFGHYVCQPDGNLSCLPGWTGEYCQQPICLSGCHEQNGYCSKPAECLCRPGWQGRLCNECIPHPGCRHGTCSTPWQCLCDEGWGGLYCDQDLNYCTHHSPCKNGATCRNSGPRSYTCTCRPGYTGVDCELELSECDSNPCRNGGSCKDQEDGYHCLCPPGYYGLHCEHSTLSCADSPCFNGGSCRERNQGANYACECPPNFTGSNCE
B2: DLL4.v1: human DLL4 construct containing the five E12 mutations (Site 1+Site 2); sequence matches SEQ ID NO: 2 (protein)
chain: SSVFQLQLQEFINERGVLASGRPCEPGCRTFFRVCLKHFQAVVSPGPCTFGTVSTPVLGTNSFAVRDDSSGGGRNPLQLPLNFTWPGTFSLIIEAWHAPGDDLRPEALPPDALISKFAIQGSLAVGQNWLLDEQTSTLTRLRYSYRVICSDNYYGDNCSRLCKKRNDYFGHYVCQPDGNPSCLPGWTGEYCQQPICLSGCHEQNGYCSKPAECLCRPGWQGRLCNECIPHNGCRHGTCSTPWQCTCDEGWGGLFCDQDLNYCTHHSPCKNGATCSNSGQRSYTCTCRPGYTGVDCELELSECDSNPCRNGGSCKDQEDGYHCLCPPGYYGLHCEHSTLSCADSPCFNGGSCRERNQGANYACECPPNFTGSNCE

System: Notch1 (EGF6-13)
Assay: SPR determination of equilibrium dissociation constants
Type: binding, human
Conditions: for off-rate from fitted SPR sensograms: series DLL4.v1, DLL4.v2, Delta^MAX, FIG. 2C Notch1 EGF6-13; for binding affinity compared to WT DLL4: stated for all four human Notch receptors (Notch1-4)
Protocol: Equilibrium dissociation constants were determined by surface plasmon resonance using a Biacore T200 instrument (GE Healthcare). Approximately 100 resonance units (RU) of biotinylated Notch extracellular fragments (Notch1 (EGF6-13), Notch2 (EGF6-13), Notch3 (EGF5-12), Notch4 (7-12), and mouse Notch1 (EGF6-13)) were immobilized on individual flow cells at 5 μl/min using a streptavidin-coated sensor chip (Series S Sensor chip SA, GE Healthcare). Three-fold serial dilutions of recombinant DLL4 proteins (N-EGF5) starting at 50 μM (WT DLL4), 18 μM (DLL4.v2), and 6 μM (DLL4.v1 and Delta^MAX) were flowed over the chip at 25° C. in SPR buffer (20 mM HEPES pH 7.4, 150 mM NaCl, 1 mM calcium chloride, 0.1% BSA supplemented with 0.005% surfactant P20). Association (“on-rate”) and dissociation (“off-rate”) phases were performed at 10 μl/min for 120 seconds and 300 seconds, respectively. The sensor chip was regenerated after each injection with 30-second washes of 2.25M Magnesium Chloride containing 25% Ethylene Glycol at 50 μL/min. Data collection rate was performed at 10 Hz, and curves were reference-subtracted from a flow cell containing 100 RU of a negative control non-related protein (biotinylated mouse RNF43 PA domain). The maximum RU for each experiment was normalized to a value of 100% and plotted as a function of concentration using Prism 9 software (GraphPad). Steady-state binding and kinetic curves were fitted using the Biacore T200 evaluation software to a 1:1 Langmuir model to determine the KD values.

Sequence of Notch1 (EGF6-13) (P46531 257-526 limits assumed): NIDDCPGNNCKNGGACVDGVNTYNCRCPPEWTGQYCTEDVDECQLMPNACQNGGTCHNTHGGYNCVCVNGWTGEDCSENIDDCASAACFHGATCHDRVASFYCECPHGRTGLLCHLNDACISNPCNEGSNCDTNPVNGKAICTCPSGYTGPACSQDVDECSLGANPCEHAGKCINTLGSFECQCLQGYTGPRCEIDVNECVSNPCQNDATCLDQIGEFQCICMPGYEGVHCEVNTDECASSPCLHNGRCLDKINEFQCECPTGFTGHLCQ

Row | Molecule | off-rate from fitted SPR sensograms | binding affinity compared to WT DLL4
1 | B1 | progressive decreases in off-rate | enhanced affinity
2 | B2 | progressive decreases in off-rate | enhanced affinity
